# Data from the supplement of paper PMC7125110.
# ± gives the standard error. For part of these data: This sample holds only a part of the variants without activity.
# B1: glmS ribozyme (parent)
# chain: AUAAAAGCGCCAGAACUACAGAAAUGUAGUUGACGAGGAGGAGGUUUAUCGAAUUUUCGGCGGAUGCCUCCAAA
# What was measured:
# Conditions in all cases: with glucosamine-6-phosphate
# [1] = variants of: B1; assay: kcat; higher = faster cleavage; RNA array
# In short: (§1)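 On sequenced MiSeq chips, barcoded ribozyme variants were made in situ by E. coli RNA polymerase and followed at 37 °C through a hybridised Cy3 probe. Glucosamine-6-phosphate was flowed in at 40 μM to 10 mM in HEPES/KCl/Mg(OAc)2 buffer. Exponential fits to normalised per-tile medians gave kobs, and weighted Michaelis–Menten fits gave kcat and KM.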
# [2] = variants of: B1; assay: KM; higher = weaker cofactor use; RNA array
# In short: as §1
# [3] = variants of: B1; assay: self-cleavage kobs at 2500 uM GlcN6P; higher = faster cleavage; RNA array
# In short: as §1
# [4] = variants of: B1; assay: self-cleavage kobs at 10000 uM GlcN6P; higher = faster cleavage; RNA array
# In short: as §1
# [5] = variants of: B1; assay: self-cleavage kobs at 640 uM GlcN6P; higher = faster cleavage; RNA array
# In short: as §1
# [6] = variants of: B1; assay: self-cleavage kobs at 40 uM GlcN6P; higher = faster cleavage; RNA array
# In short: as §1
# [7] = variants of: B1; assay: self-cleavage kobs at 160 uM GlcN6P; higher = faster cleavage; RNA array
# In short: as §1
Variant,kcat [1] [s⁻¹],KM [2] [µM],self-cleavage kobs at 2500 uM GlcN6P [3] [s⁻¹],self-cleavage kobs at 10000 uM GlcN6P [4] [s⁻¹],self-cleavage kobs at 640 uM GlcN6P [5] [s⁻¹],self-cleavage kobs at 40 uM GlcN6P [6] [s⁻¹],self-cleavage kobs at 160 uM GlcN6P [7] [s⁻¹]
U54G C58U,0.000129 ± 7.5e-06,6130 ± 820,3.75e-05 ± 1.2e-05,7.98e-05 ± 9.4e-06,,,
U54G C58A,0.000823 ± 5.9e-05,2870 ± 360,0.000361 ± 0.00012,0.000646 ± 0.00011,0.00015 ± 2.9e-05,,
C50U G66U,1.12e-05 ± 2.8e-06,,,,< 1e-05,,
U55C C70U,0.00171 ± 0.00048,5960 ± 3000,0.000413 ± 8.4e-05,0.00111 ± 0.00012,0.000172 ± 4.7e-05,2.44e-05 ± 9e-06,7.16e-05 ± 3e-05
U55C C70A,1.26e-05 ± 1.6e-06,,,,,< 1e-05,
A52U U54C,0.000603 ± 4.5e-05,2570 ± 310,0.000318 ± 5e-05,0.000462 ± 8.6e-05,0.000115 ± 1.9e-05,,3.57e-05 ± 9.5e-06
A52U U54A,0.000204 ± 9.2e-06,1670 ± 180,0.000132 ± 2.1e-05,0.000172 ± 1.8e-05,5.55e-05 ± 8.3e-06,,
C50G U57C,4.02e-05 ± 1.6e-05,,5.18e-05 ± 1.7e-05,,,,4.88e-05 ± 2e-05
U54G U57G,3.71e-05 ± 3.7e-06,1500 ± 710,,3.21e-05 ± 1.2e-05,,,
U54G U57A,0.000134 ± 2.6e-05,1540 ± 760,0.000118 ± 3.3e-05,0.00011 ± 2.1e-05,3.49e-05 ± 1.2e-05,,
U54A C70U,0.00432 ± 0.00063,78.3 ± 20,0.00404 ± 0.0014,,0.00479 ± 0.0013,0.00148 ± 0.00013,0.00258 ± 0.00056
A53C U55C,0.0014 ± 0.00029,1150 ± 480,0.00148 ± 0.00029,0.00116 ± 0.00017,0.00052 ± 9.2e-05,,0.00015 ± 4e-05
U54G C71G,0.00104 ± 0.00019,511 ± 150,0.000909 ± 0.0002,0.0011 ± 0.00012,0.000398 ± 9e-05,8.73e-05 ± 8.8e-06,0.000192 ± 4.6e-05
C50U,0.000131 ± 9.2e-06,3300 ± 600,5.29e-05 ± 1.6e-06,9.95e-05 ± 1.6e-06,2.57e-05 ± 1.5e-06,,
C50U C58A,< 1e-05,,< 1e-05,< 1e-05,,,
U55A A64U,0.000202 ± 3.2e-05,4540 ± 1600,7.6e-05 ± 1.1e-05,0.000138 ± 1.5e-05,,< 1e-05,

Variant,kcat [1] [s⁻¹],KM [2] [µM],self-cleavage kobs at 2500 uM GlcN6P [3] [s⁻¹],self-cleavage kobs at 10000 uM GlcN6P [4] [s⁻¹],self-cleavage kobs at 640 uM GlcN6P [5] [s⁻¹],self-cleavage kobs at 40 uM GlcN6P [6] [s⁻¹],self-cleavage kobs at 160 uM GlcN6P [7] [s⁻¹]
U54G U69G,7.3e-05 ± 1.5e-05,,8.77e-05 ± 1.5e-05,4.86e-05 ± 1.1e-05,9.61e-05 ± 1.4e-05,3.86e-05 ± 1.3e-05,8.46e-05 ± 2.2e-05
C50G U55G,3.86e-05 ± 1.8e-05,,4.97e-05 ± 1.6e-05,,,,7.28e-05 ± 1.9e-05
A53U U54C,0.00788 ± 0.0015,619 ± 200,0.00897 ± 0.0018,0.00704 ± 0.001,0.00401 ± 0.00061,0.000577 ± 7.7e-05,0.0012 ± 0.00025
U55C U57G,3.92e-05 ± 2.9e-06,840 ± 320,2.98e-05 ± 1.5e-05,,,< 1e-05,< 1e-05
C50U A64C,< 1e-05,,,< 1e-05,< 1e-05,,< 1e-05
U55A G66A,0.0303 ± 0.014,,0.015 ± 0.0035,0.0286 ± 0.0061,0.00563 ± 0.00082,0.000654 ± 7.1e-05,0.00137 ± 0.0003
U55G C58A,0.000783 ± 0.00021,7730 ± 3000,0.000177 ± 2.2e-05,0.000461 ± 6.3e-05,6.45e-05 ± 1e-05,,2.76e-05 ± 1.3e-05
A52C C67U,1.21e-05 ± 4.7e-06,,,,,,
C50G G59C,4e-05 ± 1.5e-05,,5.58e-05 ± 2.3e-05,,,,6.56e-05 ± 3.2e-05
A53U G66C,0.000389 ± 9.5e-05,1980 ± 890,0.000187 ± 4.6e-05,0.000387 ± 0.00011,0.000103 ± 2.5e-05,,
A53U G66A,0.0162 ± 0.0055,2370 ± 1000,0.00666 ± 0.0024,0.0144 ± 0.0026,0.00327 ± 0.00068,0.000372 ± 5.2e-05,0.000827 ± 0.00015
C50G G62C,2.62e-05 ± 7.9e-06,,,,,,
U55C G62C,1.58e-05 ± 2.1e-06,1220 ± 460,,,,,
U54A C68G,9.86e-05 ± 2.8e-06,31 ± 7.5,0.000106 ± 1.9e-05,9.77e-05 ± 9.3e-06,8.94e-05 ± 1.3e-05,5.44e-05 ± 1.6e-05,8.95e-05 ± 2.1e-05
U54C U65C,0.000618 ± 0.00021,,0.000743 ± 0.00016,0.000465 ± 0.00013,0.000249 ± 6.5e-05,,
A53G C58A,0.000622 ± 7.5e-05,2190 ± 460,0.00036 ± 4.4e-05,0.0005 ± 5.8e-05,0.000129 ± 1.6e-05,,5.7e-05 ± 1.3e-05
